{
  "source": "paper PMC6692331",
  "key": {"[1]": {"target": "humanized Archaeoglobus ferritin (HumFt) (Archaeoglobus fulgidus | human)", "assay": "SEC; HP-SEC with UV (220, 410 nm) and fluorimetric detection; ferritin dissociated without MgCl2, mixed with a 20 fold molar excess of Cyt C, re-assembled with 50 mM MgCl2; mobile phase 20 mM HEPES pH 7.4, 50 mM MgCl2; Cyt C signal at the retention time of the ferritin 24-mer (encapsulation in the cavity)"}, "[2]": {"target": "carboxymethylated humanized ferritin (S-CMHumFt) (Archaeoglobus fulgidus | human)", "assay": "SEC; HP-SEC with UV (220, 410 nm) and fluorimetric detection; ferritin dissociated without MgCl2, mixed with a 20 fold molar excess of Cyt C, re-assembled with 50 mM MgCl2; mobile phase 20 mM HEPES pH 7.4, 50 mM MgCl2; Cyt C signal at the retention time of the ferritin 24-mer (encapsulation in the cavity)"}},
  "data": [
    {"substance": "cytochrome C from equine heart (from UniProt P00004 1-105) (natural protein)", "values": [
      {"measurement": "stoichiometry N", "setting": "[1]", "result": "0.43 Cyt C:HumFt"},
      {"measurement": "stoichiometry N", "setting": "[2]", "result": "1.4 Cyt C:HumFt"}
    ]}
  ]
}
